The term Kd denotes the equilibrium constant for the complex coming apart. A lower Kd goes with tighter binding. The koff is a measure of how fast the partners let go of each other. Lower therefore signals a long-lived complex. Broadly, the kon is a measure of how fast the partners come together. The low end stands for slower complex formation, the high end for faster complex formation.

Holding throughout (assay): SPR; BIAcore 2000; His-tagged AtRGS1 (284-459 aa) immobilised on sensor chip CM5 by amine coupling; AlF4-bound Gα flowed at 6.25-400 nM in running buffer with 20 mM NaF and 100 µM AlCl3; 25°C, 10 µl/min; 10 mM Hepes, 150 mM NaCl, 3 mM EDTA, 0.005% Tween-20, 100 µM GDP, 10 mM MgCl2; 1:1 Langmuir model
Common to all, as to conditions: both partners purified

For experiment [1], the target named is T1, OsRGA1-N195T (Oryza sativa, UniProt Q0DJ33 1-380, N195T).
T1 construct: Oryza sativa heterotrimeric G protein alpha subunit OsRGA1 with N195T (switch I); printed as N191T in two paragraphs; also called OsRGA1-N191T; 195T mutant rice Gα subunit
T1 sequence (looked up): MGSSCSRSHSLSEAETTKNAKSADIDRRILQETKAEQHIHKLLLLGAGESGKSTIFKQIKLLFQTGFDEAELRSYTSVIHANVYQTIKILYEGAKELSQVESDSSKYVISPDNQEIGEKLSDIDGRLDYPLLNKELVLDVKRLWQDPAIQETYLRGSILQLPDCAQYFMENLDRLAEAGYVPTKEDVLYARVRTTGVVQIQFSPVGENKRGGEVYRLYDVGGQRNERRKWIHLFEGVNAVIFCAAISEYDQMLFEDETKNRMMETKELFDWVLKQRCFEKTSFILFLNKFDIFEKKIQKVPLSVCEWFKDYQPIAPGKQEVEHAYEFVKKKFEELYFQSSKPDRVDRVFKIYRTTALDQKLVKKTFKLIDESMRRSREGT

In experiment [2] the target is T2, OsRGA1 (Oryza sativa, UniProt Q0DJ33 1-380).
T2 construct: Oryza sativa heterotrimeric G protein alpha subunit OsRGA1; cDNA synthesized with codon usage optimised for E. coli; No tag cleavage is described; also called rice Gα; wild type rice Gα subunit
T2 sequence (looked up): T1 sequence (looked up) with T195N

Experiment [3] has as its target T3, AtGPA1-T194N (Arabidopsis thaliana, UniProt P18064 1-383, T194N).
T3 construct: Arabidopsis thaliana heterotrimeric G protein alpha subunit AtGPA1 with T194N (switch I); No tag cleavage is described; also called T194N mutant Arabidopsis Gα subunit
T3 sequence (looked up): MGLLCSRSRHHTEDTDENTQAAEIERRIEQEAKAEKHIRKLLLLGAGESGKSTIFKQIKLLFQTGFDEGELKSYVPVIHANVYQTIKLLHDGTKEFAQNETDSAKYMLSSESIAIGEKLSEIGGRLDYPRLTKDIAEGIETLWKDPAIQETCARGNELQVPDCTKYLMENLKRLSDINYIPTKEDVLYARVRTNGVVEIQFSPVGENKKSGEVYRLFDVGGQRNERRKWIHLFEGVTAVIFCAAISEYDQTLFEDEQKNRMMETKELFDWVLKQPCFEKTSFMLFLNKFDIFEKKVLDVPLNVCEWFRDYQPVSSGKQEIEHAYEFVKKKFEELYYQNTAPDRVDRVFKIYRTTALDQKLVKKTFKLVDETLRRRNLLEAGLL

Experiment [4] concerns the target T4, His-AtGPA1 (Arabidopsis thaliana, UniProt P18064 1-383).
T4 construct: Arabidopsis thaliana heterotrimeric G protein alpha subunit AtGPA1; also called Arabidopsis thaliana Gα; wild type Arabidopsis Gα subunit; not shown: His6, N-terminal, kept
T4 sequence (looked up): T3 sequence (looked up) with N194T

Changes are numbered by the printed parent chain.

B1: Recombinant His-AtRGS1 (284–459 aa) (domain or fragment, Arabidopsis thaliana, UniProt Q8H1F2 284-459, looked up)
chain: KEEFRPVDPNEPLDKLLLNKRFRHSFMEFADSCYAGETLHFFEEVYEHGKIPEDDSIRRIYMARHIMEKFIVAGAEMELNLSHKTRQEILTTQDLTHTDLFKNALNEVMQLIKMNLVRDYWSSIYFIKFKEEESCHEAMHKEGYSFSSPRLSSVQGSDDPFYQEHMSKSSRCSSPG
notes: Arabidopsis thaliana Regulator of G protein Signaling 1 (AtRGS1), residues 284-459
Take B1: the Kd in experiment [1] came to 4.83 nM; in experiment [2], 56.7 nM; in experiment [3] it was 115 nM; in experiment [4], 17.4 nM. The koff in experiment [1] was 0.00584 s⁻¹; in experiment [2], 0.0217 s⁻¹; in experiment [3] it was 0.0134 s⁻¹; in experiment [4] it was 0.00616 s⁻¹. Also, the kon in experiment [1] amounted to 1.21e+06 M⁻¹ s⁻¹; in experiment [2] it was 383000 M⁻¹ s⁻¹; in experiment [3], 117000 M⁻¹ s⁻¹; in experiment [4], 353000 M⁻¹ s⁻¹.

(Values after paper PMC3386157, “G Protein Activation without a GEF in the Plant Kingdom” (PLoS Genetics, 2012).)
